From US20190055314A1 (ADAGENE, published 2019)
Positions count from the first letter of the chain named. Blank lines part the entries; values can stand above or below the binder they belong to.

Key:
[1] = target: T1, rat CD137 on the cell surface (rat, UniProt Q4W8J3 24-258); assay: flow cytometry, HEK293F cells expressing CD137 [Cont.]
T1 sequence: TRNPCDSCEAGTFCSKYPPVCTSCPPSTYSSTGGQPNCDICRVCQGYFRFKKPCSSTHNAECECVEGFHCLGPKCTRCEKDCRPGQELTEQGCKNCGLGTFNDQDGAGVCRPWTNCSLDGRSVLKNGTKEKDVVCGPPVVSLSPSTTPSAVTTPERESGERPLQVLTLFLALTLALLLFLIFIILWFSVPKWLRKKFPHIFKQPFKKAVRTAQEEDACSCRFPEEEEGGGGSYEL

[2] = target: T2, CD27 overexpressed on HEK293F cells (UniProt P26842 20-260, limits assumed); assay: flow cytometry, HEK293F cells expressing the receptor [Cont.]
T2 construct: whole, on cells
T2 sequence (looked up): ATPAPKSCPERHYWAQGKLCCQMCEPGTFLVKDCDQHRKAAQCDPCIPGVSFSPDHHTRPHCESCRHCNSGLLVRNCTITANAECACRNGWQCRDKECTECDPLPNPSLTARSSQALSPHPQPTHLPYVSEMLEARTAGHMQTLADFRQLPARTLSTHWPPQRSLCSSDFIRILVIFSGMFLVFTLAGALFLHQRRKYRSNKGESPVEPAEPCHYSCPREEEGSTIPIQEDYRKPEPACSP

[3] = target: T3, CD40 overexpressed on HEK293F cells (UniProt P25942 21-277, limits assumed); assay: as above
T3 construct: whole, on cells

[4] = target: T4, OX40 overexpressed on HEK293F cells (UniProt P43489 29-277, limits assumed); assay: as above
T4 construct: whole, on cells
T4 sequence (looked up): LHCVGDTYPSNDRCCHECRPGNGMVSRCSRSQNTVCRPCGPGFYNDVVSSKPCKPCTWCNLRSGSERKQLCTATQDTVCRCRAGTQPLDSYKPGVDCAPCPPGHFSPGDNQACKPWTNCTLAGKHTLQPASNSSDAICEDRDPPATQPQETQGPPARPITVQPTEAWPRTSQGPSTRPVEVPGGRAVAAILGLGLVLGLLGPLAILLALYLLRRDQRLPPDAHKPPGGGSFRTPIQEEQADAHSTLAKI

[5] = target: T5, GITR overexpressed on HEK293F cells (UniProt Q9Y5U5 26-241, limits assumed); assay: as above
T5 construct: whole, on cells
T5 sequence (looked up): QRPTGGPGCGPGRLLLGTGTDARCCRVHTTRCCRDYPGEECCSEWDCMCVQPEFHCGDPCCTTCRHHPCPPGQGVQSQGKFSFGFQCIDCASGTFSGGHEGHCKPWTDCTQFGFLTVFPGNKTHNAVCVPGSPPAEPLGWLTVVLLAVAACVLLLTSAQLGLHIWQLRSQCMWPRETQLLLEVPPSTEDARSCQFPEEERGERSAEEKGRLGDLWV

[6] = target: T6, mouse CD137 fused with human FC fragment (mouse, UniProt P20334 24-178, limits assumed); assay: ELISA, CD137-Fc coated in serial dilution, IgG 5 µg/mL, protein L-HRP
T6 construct: also called mouse CD137-Fc; not shown: human Fc fragment
T6 sequence: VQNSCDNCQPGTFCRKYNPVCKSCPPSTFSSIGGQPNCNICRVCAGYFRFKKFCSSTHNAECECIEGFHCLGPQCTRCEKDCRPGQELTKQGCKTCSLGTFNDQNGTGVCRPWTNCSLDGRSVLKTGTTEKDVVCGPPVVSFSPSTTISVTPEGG

[7] = target: T7, human CD137-His6 (Sino Biological #10041-H08H) (human, UniProt Q07011 24-186); assay: SPR Biacore, IgG captured; Table 3 run, IgG captured by anti-human Fc; Table 1b gives 3.8E-08 M from a separate measurement
T7 construct: Bought; also called human CD137 protein; not shown: His6 tag

[8] = target: T3, CD40 overexpressed on HEK293F cells; assay: flow cytometry, HEK293F cells expressing the receptor, antibody 100 nM
[9] = target: T5, GITR overexpressed on HEK293F cells; assay: as above
[10] = target: T6, mouse CD137 fused with human FC fragment; assay: ELISA, coated CD137-Fc
[11] = target: T8, CD120a; assay: flow cytometry, HEK293F cells expressing the receptor, antibody 100 nM [Cont.]
T8 chain: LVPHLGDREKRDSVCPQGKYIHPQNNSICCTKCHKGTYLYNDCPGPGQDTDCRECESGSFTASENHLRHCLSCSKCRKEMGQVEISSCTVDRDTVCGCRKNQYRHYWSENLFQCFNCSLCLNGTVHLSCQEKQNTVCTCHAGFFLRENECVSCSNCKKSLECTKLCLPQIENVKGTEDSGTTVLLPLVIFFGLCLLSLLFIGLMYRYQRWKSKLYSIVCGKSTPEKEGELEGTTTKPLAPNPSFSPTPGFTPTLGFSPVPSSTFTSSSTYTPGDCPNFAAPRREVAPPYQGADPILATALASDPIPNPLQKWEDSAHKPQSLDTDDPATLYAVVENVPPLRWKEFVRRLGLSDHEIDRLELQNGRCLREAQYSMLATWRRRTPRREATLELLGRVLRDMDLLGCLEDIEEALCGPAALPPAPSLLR

[12] = target: T9, CD95; assay: as above
T9 chain: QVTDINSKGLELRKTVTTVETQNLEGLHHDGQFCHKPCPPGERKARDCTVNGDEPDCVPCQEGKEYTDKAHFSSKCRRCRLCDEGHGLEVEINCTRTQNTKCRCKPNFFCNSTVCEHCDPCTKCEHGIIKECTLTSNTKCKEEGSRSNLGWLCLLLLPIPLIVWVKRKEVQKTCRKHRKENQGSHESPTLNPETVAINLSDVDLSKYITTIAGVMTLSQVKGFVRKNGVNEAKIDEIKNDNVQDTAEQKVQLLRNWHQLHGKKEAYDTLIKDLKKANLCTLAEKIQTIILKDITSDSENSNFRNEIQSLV

T3 sequence (P25942 21-277 limits assumed): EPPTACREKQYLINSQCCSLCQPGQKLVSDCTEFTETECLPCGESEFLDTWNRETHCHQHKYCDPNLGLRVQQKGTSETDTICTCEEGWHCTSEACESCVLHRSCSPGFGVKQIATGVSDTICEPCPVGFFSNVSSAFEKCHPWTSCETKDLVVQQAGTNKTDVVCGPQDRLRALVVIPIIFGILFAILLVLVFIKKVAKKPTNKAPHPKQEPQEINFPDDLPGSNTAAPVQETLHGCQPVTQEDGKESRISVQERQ

binding result [6]: no binding | Kd [7]: 24.2 nM
B1: AG10059 (antibody, human IgG4 S228P, kappa, V domains shown)
VH: EVQLVESGGGLVQPGGSLRLSCAASGYSITSGHYWAWIRQAPGKGLEWVSSISGYGSTTYYADSVKGRFTISRDNSKNTLYLQLNSLRAEDTAVYYCARGGSDAVLGDWFAYWGQGTLVTVSS
VL: DIQLTQSPSSLSASVGDRVTITCRASQGIGSFLAWYQQKPGKAPKLLIYDASNLETGVPSRFSGSGSGTDFTLTISSLQPEDFATYYCQQGYYLWTFGQGTKVEIKR
binding result [1]: no binding (tested: 100 nM (text paragraph 220)) | binding result [2]: no binding (tested: 100 nM (text paragraph 226)) | binding result [3]: no binding (tested: 100 nM (text paragraph 226)) | binding result [4]: no binding (tested: 100 nM (text paragraph 226)) | binding result [5]: no binding (tested: 100 nM (text paragraph 226))

Mean [8]: 9300 | Mean [9]: 18600 | Kd [10]: 0.3 nM | Mean [11]: 8070 | Mean [12]: 5370
B2: AG10058 (antibody, human IgG4 S228P, kappa, V domains shown)
VH: EVQLVESGGGLVQPGGSLRLSCAASGFSLSTSGVGVGWIRQAPGKGLEWLALIDWDDDKYYSPSLKSRLTISRDNSKNTLYLQLNSLRAEDTAVYYCARGGSDTVLGDWFAYWGQGTLVTVSS
VL: B1 VL with G28S, I29V, G30S, S31P, F32Y, N53S, T56S, Y93S
